Results on one protein are retold here after publication PMC9606172, “Recombinant acetylxylan esterase of Halalkalibacterium halodurans NAH-Egypt: molecular and biochemical study” (AMB Express, 2022).

By Km is commonly meant the concentration of substrate that gives half-maximal velocity. By kcat is commonly meant the maximal rate divided by the concentration of active sites. The term kcat/Km denotes the turnover number divided by the Michaelis constant.

Substrate in the series: CC(=O)Oc1ccc([N+](=O)[O-])cc1
Briefly: purified protein. The format is biochemical, Halalkalibacterium halodurans. The settings on record: 30 mM Tris-HCl pH 8.0 (general assay), temperature for the Km not given.

B1: AXE-HAS10 (Halalkalibacterium halodurans C-125) (protein)
chain: MPLIDMPLTELKEYMGRNPKPDDFTEYWDRALQEMRKVNPNVELIPSDFQTTYAECFHLYFTGVRGARIHAKYVRPRHTSGTHPAVIHFHGYTMNAGEWTGLLHYAALGYSVLAMDVRGQGGLSEDTGGVKGNTHSGHIIRGLDDNADQLLFRHVFLDTAQLANIVMNLPEVDEERVAVTGWSQGGALAIACAALEPKIKKVAPVYPFLSDYQRVWEMDLAEKAYDELQTYFRRFDPQHRREAEIFTKLGYIDIQHLAPLVKGEVLLAVGLMDTVCPPSTQFAMYNKLTTTKSIELYPDFAHEDLPGHRDRIFQFLSDL
notes: full-length ORF, 319 residues, no signal peptide; pET-28a(+) His6 fusion, 33 extra residues N-terminal and 9 C-terminal; E. coli BL21 (DE3) Rosetta; EC 3.1.1.72, CE7
As for B1, the Km turned out to be 96 µM, the kcat came to 63.1 s⁻¹ and the kcat/Km is 657000 M⁻¹ s⁻¹.
